Measured values: PMC4760761

Target: T1, CodY-6His (Listeria monocytogenes) (UniProt A0A0H3GGF1)
T1 sequence: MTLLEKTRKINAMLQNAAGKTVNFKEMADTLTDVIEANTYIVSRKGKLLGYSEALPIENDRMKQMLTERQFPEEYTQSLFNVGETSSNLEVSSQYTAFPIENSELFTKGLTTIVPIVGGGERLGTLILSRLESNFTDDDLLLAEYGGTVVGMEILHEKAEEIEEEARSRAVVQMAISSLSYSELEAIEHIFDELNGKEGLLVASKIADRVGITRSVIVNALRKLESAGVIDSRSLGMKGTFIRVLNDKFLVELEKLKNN
Assay: EMSA
Conditions: EMSA: 20 mM Tris-Cl pH 8, 50 mM KCl, 2 mM MgCl2, 0.5 mM EDTA, 1 mM DTT, 0.05% NP-40, 5% glycerol, 25 ug/ml salmon sperm DNA, 4 ng DIG-DNA, 15 min room …

Row | Substance | Kd
1 | AAAAGTAACATTTATTTTTCAGAAAAAATTTTTTAATTTTTACCGCGATGGATTCATTCGCGGTTTTTTTGTATGTAATGCATTGGTATATAAGGCTTTATCTATAATGTTAGATTATCTAACATAAATTTGACAAAACATCTAACGTACATTATAATGCTACTATCATCAAAAAAATAATTATGTTTTGAGGGGGAATTGTCGTGAGCGAAAAGGAAATCCGGAGATCGATGCCGCTTTTTCCAATTGGGCCTGTGATGAAGCTAACTGATCTCACTGCTAGACAAATTCGCTACTATG (double strand) [glnR upstream probe] | 74 nM
2 | AACCGTCACTTGTGGCGGTTTTTTTGTGTTTTCATCTTTGTGAATTAATTTTGATTTCTTTTAAAATTGGTTATAACTCTCGCGAATTGGGGTAAAAGTAAAGAGGCAGATGAAGATACATTGTGAAAAATTGATATGATAGGACAAGTCGTTTGATTGACAGCGTTTTCTTGATATGATTAAATAGACTCAAGTTAATTAACATGTCAGGAGAAGAGATGACAATCGAAACGATGCAAGGGTACTAGTGTGCCTACGTTTTGATTGTCATTCTTTTTTTGAAGTTAATTGATAATCGGAATGTAAGGGGACTAGTAAGTGTTAAAATTCCGGTGCTACAAATAAGCAAGAAGAAGGAGTTGGAAAAGATGATTGACACAAGTTTAGCAACACAATTTCTAGGTGAAGTCATTGGTACGGCTATACTAATTATTTTAGGTGCTGGTGTCGTAGCAGGTGTTTCACTGAAAAGATCCAAAGCAGAGAATG (double strand) [glpF (LMRG_01431) upstream probe] | 114 nM
3 | ATTCAACCCTCTTTCAAAATTCTTTTTCCCAAGTGCTTTAAATGGTACACTAATTATACCATAAGCAACTATTTTTCTATTCATTATTTACAAAAACGCTTTAACGTGCTAATATGCTAATAAACTAAAATATCGTAAAGGAGCTAACCAGATGAACTTAAATAAGAACTTACCAACTGGAACACGTGATAAACTTTTTCGTGAAGCACGAGCTGCATACAAAATTGAGCAACAAGTGAATCATTATTTT (double strand) [hisZ (LMRG_00251) upstream probe] | 150 nM
4 | ATTCGCTCAACTCCTTCAATATAACTTCAATAACAAGTATAGCAGTTTTATGAACAGGAACCAATTTATTACTATTTGAAATGATTATTTTTATTTAGAAATGTATTTTTAAGCATAATTATGAATAAATGAAAATAAAAAGGTTGATATCTAAAAGCATCGATGTTAATATAAATACAAATGTTTGTATATTTATGAATAGGGGATGTTTAAAATGGCGAAAGAAAAAATCGTATTAGCTTACTCAGGTGGGTTAGATACTTCTGTGGCAATTCAGTGGTTAGTAGAATCAGGTTATGAAGTTATTGCATGTT (double strand) [argG (LMRG_01241) upstream probe] | 70 nM
5 | CATTAAATCCTCCCTCTTCCCATTATTACCTTTCAATATCCTTAATGGACATTTAACATCTATATACAATACACCCATTTTTTTTAAAGTGCAAGAGTTTTTTACTAAAAATGGAAAAAAATTTAATGAATGCGTTTGCTGCGAATAGAACAACTATAAGCATTGTCTCAAAAATTTTTCCTGGCTAAGAAAAAAACTGGAATAATTTTCGAAAACAAACGTGCTAATCTTATACATGTTCCAACAAACAATTACTTAGGAGGTGCTTTTCTCGTGTTAACTGATGATGTTCCAAAAAAATCACATTTACCATTAATTAAGCATCATTCTAATTACTTATAGCTTCGTTTAGTTGTATTTTCGCAAACAAAAAATTGGGAGGTAACATACAATGTCTAAACAAGCAAAGTCTTTAACCTTATTCGGATTTTTCGCCATCACGGCTTCCATGGTTATGACCGTTTATGAATATCCAACATTTGCCACTTCCG (double strand) [gadC-gadG (LMRG_01480) upstream probe] | 25 nM
6 | CTTCTATATCTACTCATTAAAACCTAAGCAAACGTTCTCATTAACTACATTTTAAAAAATTTCAGAAAAATTGGTTTTTATGCTTGAAAATATTCTCAACAATGTGTAAACTAACAACATAGGTAAGAAAAGTTGACCAAATTTCAGAAAAATTTACTTAACGCACACAAGCCAATGTTTTTCTTCTTTATAACATTGCATGTATTTGCGTCAGGTTTTCTACTTTTCCTTATAGTCAAAATATTTAAACAAGGAGCGATTATAGTATGGCACAAACATCCACTATCCAAAACGACACAAAGGCAGCCGAAGAATACGCAGCTCGAGTGTTTGAAACAATTAAACAACGGAATCCTGGCGAAACGGAATTCCACCAAGCAGTTGAAGAATTCTTAAACTCTGTTATCCCAGCCCTTGCAAAAGAACCTAAATACGAAGCAAATGGCATTTTAGAACAGTTAACAGAACCCGAACGCCTTATCAGTTTCCGAGTTCCATGGGTGGATGATTCTGGCA (double strand) [gdhA (LMRG_00242) upstream probe] | 57 nM
7 | GAAGAAGTGAAGACGTACCTCATTCTTTAGAGAGCATTTACTGGTGAGTAAACGTATTTAAAGAGTGGAGCGTTTTTATTTTTGAATGTTTTAATTTTATTAGTTAGGGTAAAATCGACAGTATACTTAAAATTAGATGGGGTGAAGTGATGAATATTAGTATAGAAATAAAAGAACGTGATACTGACCACATAGACATATTTGTTGCTGGGGAGATCGATGCTTATACAGCGCCAAAGGTAAAAGAAGCATTAGAAGTATATCAAGTTAAAGAGGG (double strand) [rsbV-sigB (LMRG_02317) upstream probe] | 152 nM
8 | GTTAATTGCCTCCATTAATATACATATTATAGTTACCATTTTACTATAAAAAAGAACAACTTGACAGAAAAAAAGTGATTAAAAACAGCTCCAGCACTTATTTCCGTGTATCAATACAGAGGTAAAAAGGCATGCCACTTAGGCAAAAGACGGCTATGCTCTTAAGAAATTTTTTTGCTGTTATACCCTACTATTTTGCTATTCTAACAGCAATTTCAAAAAAACACTTCATATTAAGGTCTGTTCGTGATAAAATGAACATAGTTGATAATGATTATCATGTTCATTACATAACATAAAAGGAGGCCTGCTAGCTTATGCAATTAAATGAAACTGCTGTCGGTGAAAAAGTTCGCATCTCAGAATTAAAAATTGAGAACGCTATGCTTAAACGTCGCTTACTTGCACTTGGTTGCGATGAAGGTTGTGATATTTGTATCAAACAAAAAGGACTATTTGGTG (double strand) [feoA (LMRG_01257) upstream probe] | 90 nM
9 | TATAATTCTCCTTTAATAGTTTAATGTTGGTTAAACTAGCTGAAGGATTGAAGAGTTTATTTCACTCTTACTTTCTAAACAATCCTAAAGCCATTGTTAGAAAGTCGAGAGCAGTGCAATTTTGTTTGCATCTCTTTGATCACCACCTTGCCTTCATTATAAGCACTTCTGAATTGTTCGTCAATTCTCTTTTATGAATACTCTTCTAAAAACAGGGTAAACGAAAACTATTGGACATTAGAGAAAACATCCATGGGAGGAGAAAGTAAAATGAAAAAAGTAAAAGCAAGTGAAACACTCGTACAAACATTAAAAAATTGGGGTATCGACCACGTATATGGCTTGCCCGGCGATTCGATTGACACCGTAGTTGACGCTTTACGAAAAGAAC (double strand) [poxB (LMRG_00411) upstream probe] | 55 nM
10 | TTAACAAATGTTAGAGAAAAATTAATTCTCCAAGTGATATTCTTAAAATAATTCATGAATATTTTTTCTTATATTAGCTAATTAAGAAGATAATTAACTGCTAATCCAATTTTTAACGGAATAAATTAGTGAAAATGAAGGCCGAATTTTCCTTGTTCTAAAAAGGTTGTATTAGCGTATCACGAGGAGGGAGTATAAGTGGGATTAAATAGATTTATGCGTGCGATGATGGTAGTTTTCATTACTGCCAACTGCATTACGATTAACCCCGACATAATATTTGCAGCGACAGATA (double strand) [actA (LMRG_02626) upstream probe] | 208 nM
11 | fliN (LMRG_02874) upstream probe | 26 nM
12 | glnR upstream probe | 74 nM
